Assay results published in paper PMC10073072.
Each block holds one binder with its values, some of them ahead of it.

Tests used:
[1] = target: METTL9^M6 R214A (human) (UniProt Q9H1A3); experiment: ITC; METTL9 protein and synthetic peptide; conditions and who was titrated not shown
[2] = target: T1, SLC39A5^369–380 peptide, Q6ZMH5; experiment: ITC; conditions: chain shown with the change;; parent: 9.0 µM
T1 chain: GHQGHSHGHQGGY

fold weaker binding affinity than METTL9^M6 [1]: 5 fold
Binder: GHQGHSHGHQGGY [SLC39A5^369–380 peptide]

Kd [2]: 51 µM
B1: METTL9^M6 (METTL9^46–318 with six mutations), Q9H1A3 R214A (protein)
chain: HMAAGGRKENHQWYVCNREKLCESLQAVFVQSYLDQGTQIFLNNSIEKSGWAAIQAYHSAVSSAFSLAMSRTSINGLLGRGSMFVFSPDQFQRLLKINPDWKTHRLLDLGAGDGEVTKIMSPHFEEIYATELSETMIWQLQKKKYRVLGINEWQNTGFQYDVISCLNLLDACDQPLTLLKDIRSVLEPTRGRVILALVLPFHPYVENVGGKWEKPSEILEIKGQNWEEQVNSLPEVFRKAGFVIEAFTRLPYLCEGDMYNDYYVLDDAVFVLKPV
